Laboratory results reported in patent US20220332795A1 (ARO BIOTHERAPEUTICS, published 2022).
Changes are numbered by the printed parent chain.

B1: SEQ ID NO 175 (designed binder)
chain: MLPAPKNLVVSRVTEDSARLSWTAPDAAFDSFRISYCETFYHGEAIVLTVPGSERSYDLTGLKPGTEYSVLIHGVKGGLLSSPLIAKFTT
notes: FN3 domain
B2: SEQ ID NO 178 (designed binder)
chain: MLPAPKNLVVSRVTEDSARLSWTAPDAAFDSFYIAYAEPRPDGEAIQLQVPGSERSYDLTGLKPGTEYSVLIHGVKGGLLSSPLSAIVTT
notes: FN3 domain
B3: SEQ ID NO 179 (designed binder)
chain: B2 chain with Y33P, Q47V, Q49T, I87F, V88F
notes: FN3 domain
B4: SEQ ID NO 180 (designed binder)
chain: B2 chain with Q47A, Q49L, S85V, I87Q, V88F
notes: FN3 domain
B5: SEQ ID NO 182 (designed binder)
chain: B2 chain with Q47D, Q49H, S85H, I87L, V88F
notes: FN3 domain
B6: SEQ ID NO 183 (designed binder)
chain: B2 chain with Q47L, Q49D, L79F, L80P, S82M, V88F
notes: FN3 domain
B7: SEQ ID NO 185 (designed binder)
chain: B2 chain with Q47Y, Q49G, S85R, I87K, V88F
notes: FN3 domain
B8: SEQ ID NO 186 (designed binder)
chain: B2 chain with Q49G, V88F
notes: FN3 domain
B9: SEQ ID NO 188 (designed binder)
chain: B2 chain with Q47G, Q49G, S85D, I87S, V88F
notes: FN3 domain
B10: SEQ ID NO 189 (designed binder)
chain: B2 chain with Q49T, L62P, S69W, H73Q, L79G, L80S, S82V, S85V, I87Y, V88F
notes: FN3 domain
B11: SEQ ID NO 190 (designed binder)
chain: B2 chain with Q47S, Q49D, S85E, I87S, V88F
notes: FN3 domain
B12: SEQ ID NO 193 (designed binder)
chain: B2 chain with Q47S, Q49S, S85I, I87N, V88F
notes: FN3 domain
B13: SEQ ID NO 194 (designed binder)
chain: B2 chain with Q47A, Q49L
notes: FN3 domain
B14: SEQ ID NO 195 (designed binder)
chain: B2 chain with Q47I, Q49D, A86S, V88F
notes: FN3 domain
B15: SEQ ID NO 196 (designed binder)
chain: B2 chain with Q47V, Q49W, S85R, I87S, V88F
notes: FN3 domain
B16: SEQ ID NO 197 (designed binder)
chain: B2 chain with Q47K, Q49D, S85V, I87F, V88F
notes: FN3 domain
B17: SEQ ID NO 198 (designed binder)
chain: B2 chain with Q47I, Q49E, S85V, I87Y, V88F
notes: FN3 domain
B18: SEQ ID NO 199 (designed binder)
chain: B2 chain with Q47H, Q49W, S85H, I87D, V88F
notes: FN3 domain
B19: SEQ ID NO 200 (designed binder)
chain: B2 chain with Q47W, Q49E, S85V, I87D, V88F
notes: FN3 domain
B20: SEQ ID NO 201 (designed binder)
chain: B2 chain with Q47S, Q49W, S85L, I87H, V88F
notes: FN3 domain
B21: SEQ ID NO 107 (designed binder)
chain: MSLPAPKNLVVSRVTEDSARLSWTAPDAAFDSFYIAYAEPRPDGEAISLYVPGSERSYDLTGLKPGTEYSVLIHGVKGGLLSSPLSAISTT
notes: FN3 domain
B22: SEQ ID NO 174 (designed binder)
chain: MLPAPKNLVVSRVTEDSARLSWTAPDAAFDSFFIGYLEPQPPGEAIQLWVPGSERSYDLTGLKPGTEYNVTIQGVKGGFPSMPLSAIFTT
notes: FN3 domain
B23: SEQ ID NO 108 (designed binder)
chain: B22 chain with W49R
notes: FN3 domain
B24: SEQ ID NO 110 (designed binder)
chain: B22 chain with Q47Y, W49T, M82Y, S85D, I87S
notes: FN3 domain
B25: SEQ ID NO 114 (designed binder)
chain: B22 chain with A24T, Q47S, W49Q, M82S, S85F, I87V
notes: FN3 domain
B26: SEQ ID NO 121 (designed binder)
chain: B22 chain with Q47A
notes: FN3 domain
B27: SEQ ID NO 123 (designed binder)
chain: B22 chain with M82H, S85G, I87V
notes: FN3 domain
B28: SEQ ID NO 126 (designed binder)
chain: B22 chain with Q47H, W49H, M82I, S85H, I87N
notes: FN3 domain
B29: SEQ ID NO 136 (designed binder)
chain: B22 chain with Q47W, W49H, M82I, S85I
notes: FN3 domain
B30: SEQ ID NO 139 (designed binder)
chain: B22 chain with W49G, M82H, S85N, I87N
notes: FN3 domain
B31: SEQ ID NO 140 (designed binder)
chain: B22 chain with W49E
notes: FN3 domain
B32: SEQ ID NO 142 (designed binder)
chain: B22 chain with Q47G, W49Q, M82H, S85K, I87Q
notes: FN3 domain
B33: SEQ ID NO 151 (designed binder)
chain: B22 chain with M82R, S85Q, I87H
notes: FN3 domain
B34: SEQ ID NO 163 (designed binder)
chain: B22 chain with Q47Y, W49E, M82F, S85K, I87A
notes: FN3 domain
B35: SEQ ID NO 173 (designed binder)
chain: B22 chain with F33H, G35V, L37H, Q40R, P42S, Q47H, W49Q, M82Y, I87F
notes: FN3 domain
B36: SEQ ID NO 191 (designed binder)
chain: B22 chain with Q47I, W49A, M82L, S85V, I87S
notes: FN3 domain
B37: SEQ ID NO 109 (designed binder)
chain: MLPAPKNLVVSRVTEDSARLSWTAPDAAFDSFHISYEEDYTFGEAIYLRVPGSERSYDLTGLKPGTEYRVVIGGVKGGWFSEPLLAAFTT
notes: FN3 domain

Biological target: T1, recombinant biotinylated human CD71 extracellular domain (human, UniProt P02786 89-760, biotinylated)
T1 construct: extracellular domain; also called hCD71; huCD71 ECD
Assay: solution ELISA

T1 sequence (P02786 other isoform, or with tags, fused parts or gaps): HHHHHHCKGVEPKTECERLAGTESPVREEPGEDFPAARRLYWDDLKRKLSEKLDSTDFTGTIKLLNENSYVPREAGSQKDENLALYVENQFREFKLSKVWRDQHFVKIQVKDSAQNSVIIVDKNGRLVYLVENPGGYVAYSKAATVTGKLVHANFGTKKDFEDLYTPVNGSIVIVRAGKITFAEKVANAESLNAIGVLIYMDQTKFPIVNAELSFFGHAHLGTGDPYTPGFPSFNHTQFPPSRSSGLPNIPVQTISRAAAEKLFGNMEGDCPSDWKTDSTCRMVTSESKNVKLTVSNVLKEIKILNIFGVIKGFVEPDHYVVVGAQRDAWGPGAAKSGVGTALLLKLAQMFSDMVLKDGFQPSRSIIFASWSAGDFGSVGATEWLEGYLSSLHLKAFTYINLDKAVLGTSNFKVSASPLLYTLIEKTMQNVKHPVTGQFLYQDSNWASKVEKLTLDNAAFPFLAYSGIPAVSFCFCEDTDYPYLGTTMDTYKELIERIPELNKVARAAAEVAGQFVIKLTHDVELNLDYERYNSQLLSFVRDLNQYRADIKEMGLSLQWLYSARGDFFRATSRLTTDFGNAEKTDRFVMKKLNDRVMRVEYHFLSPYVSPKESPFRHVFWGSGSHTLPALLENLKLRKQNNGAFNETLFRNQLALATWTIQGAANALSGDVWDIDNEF

Binder	hCD71, RLU
B1	4.32e+06 RLU
B2	865000 RLU
B3	3.68e+06 RLU
B4	653000 RLU
B5	197000 RLU
B6	1.13e+06 RLU
B7	652000 RLU
B8	844000 RLU
B9	358000 RLU
B10	2.57e+06 RLU
B11	385000 RLU
B12	1.71e+06 RLU
B13	682000 RLU
B14	4.27e+06 RLU
B15	2.13e+06 RLU
B16	1.4e+06 RLU
B17	3.91e+06 RLU
B18	416000 RLU
B19	930000 RLU

Binder	hCD71, RLU
B20	3.25e+06 RLU
B21	1.36e+06 RLU
B22	1.9e+06 RLU
B23	932000 RLU
B24	636000 RLU
B25	2.6e+06 RLU
B26	4.77e+06 RLU
B27	1.25e+06 RLU
B28	2.74e+06 RLU
B29	3.69e+06 RLU
B30	1.13e+06 RLU
B31	603000 RLU
B32	2.97e+06 RLU
B33	1.23e+06 RLU
B34	313000 RLU
B35	1.49e+06 RLU
B36	3.86e+06 RLU
B37	5.33e+06 RLU

Biological target: T2, CD71 apical domain (UniProt P02786 189-383, limits assumed)
T2 construct: domain: Apical domain
Assay: solution ELISA

T2 sequence (P02786 189-383 limits assumed): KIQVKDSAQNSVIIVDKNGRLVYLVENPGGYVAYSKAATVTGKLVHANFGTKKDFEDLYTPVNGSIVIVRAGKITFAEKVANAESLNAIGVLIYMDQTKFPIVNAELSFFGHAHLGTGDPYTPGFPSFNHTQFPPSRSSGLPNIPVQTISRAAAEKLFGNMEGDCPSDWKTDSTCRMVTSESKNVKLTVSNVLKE

Binder	Apical domain, RLU
B1	7.16e+06 RLU
B2	4.95e+06 RLU
B3	7.29e+06 RLU
B4	3.88e+06 RLU
B5	2.84e+06 RLU
B6	6.95e+06 RLU
B7	5.46e+06 RLU
B8	5.38e+06 RLU
B9	5.24e+06 RLU
B10	98900 RLU
B11	4.89e+06 RLU
B12	6.12e+06 RLU
B13	4.78e+06 RLU
B14	7.35e+06 RLU
B15	5.93e+06 RLU
B16	6.78e+06 RLU
B17	7.2e+06 RLU
B18	5.56e+06 RLU
B19	6.1e+06 RLU

Binder	Apical domain, RLU
B20	7.5e+06 RLU
B21	5.99e+06 RLU
B22	4.83e+06 RLU
B23	2.44e+06 RLU
B24	803000 RLU
B25	6.22e+06 RLU
B26	6.18e+06 RLU
B27	4.78e+06 RLU
B28	4.42e+06 RLU
B29	4.77e+06 RLU
B30	1.86e+06 RLU
B31	317000 RLU
B32	4.36e+06 RLU
B33	4.04e+06 RLU
B34	74500 RLU
B35	1.8e+06 RLU
B36	4.66e+06 RLU
B37	28300 RLU

Biological target: T1, recombinant biotinylated human CD71 …
Assay: solution ELISA, signal ratio to HSA

Binder	hCD71:HSA
B1	313
B2	45
B3	127
B4	61.6
B5	14.5
B6	50.3
B7	44
B8	50.6
B9	13.3
B10	21.5
B11	16.4
B12	61.2
B13	39
B14	103
B15	84.6
B16	29.6
B17	186
B18	24.3
B19	51.6

Binder	hCD71:HSA
B20	14
B21	21.8
B22	61.7
B23	69.6
B24	60
B25	121
B26	269
B27	42.7
B28	85
B29	155
B30	73.8
B31	27.9
B32	123
B33	45.2
B34	11.5
B35	66.5
B36	119
B37	138

Biological target: T2, CD71 apical domain
Assay: solution ELISA, signal ratio to HSA

Binder	apical domain:HSA
B1	519
B2	257
B3	252
B4	366
B5	209
B6	310
B7	369
B8	322
B9	195
B10	0.8
B11	208
B12	219
B13	273
B14	177
B15	235
B16	144
B17	342
B18	324
B19	339

Binder	apical domain:HSA
B20	32.2
B21	95.8
B22	157
B23	182
B24	75.8
B25	289
B26	348
B27	163
B28	137
B29	201
B30	121
B31	14.6
B32	181
B33	149
B34	2.7
B35	80.4
B36	143
B37	0.7
